Data: publication PMC9251887

Biological target: GFP-Joka2 (tomato (SlJoka2))
Assay: FRET or BRET; FRET-FLIM in N. benthamiana leaves; donor GFP-Joka2, acceptors RFP fusions; GFP lifetime measured in GFP-JOKA2 aggregates

With RFP-XopL (natural protein) the reduction of the donor's fluorescence lifetime was 0.1 ns.
